The source of these data is patent US20090215115A1, “SIALYLTR[…] SEQUENCE MOTIFS” (National Research Council of Canada, priority 2004, published 2009).

The data set in a line: α-2,3-sialyltransferase activity assay with capillary electrophoresis detection. Conditions: lysates of E. coli expressing the Cst-I protein; for sialyltransferase activity: acceptor 1 mM Lac-FCHASE, donor 0.2 mM CMP-Neu5Ac, 37° C., pH 7. In kind it is biochemical. The method, then:
Assays. Protein concentration was determined using the bicinchoninic acid protein assay kit (Pierce, Rockford, Ill.). For all of the enzymatic assays, one unit of activity was defined as the amount of enzyme that generated one […] of product per minute. FCHASE-labelled oligosaccharides are prepared as described in Gilbert et al. (1997) Eur. J. Biochem. 249: 187-194. p-Nitrophenol-glycosides (p-NP-glycosides) were obtained from Sigma-Aldrich.
The -2,3-sialyltransferase activity was assayed at 37° C. using 1 mM Lac-FCHASE (6-(5-fluorescein-carboxamido)-hexanoic acid succimidyl ester), 0.2 mM CMP-Neu5Ac, 50 mM MOPS pH 7, 10 mM MnCl2 and 10 mM MgCl2 in a final volume of 10 μL. After 5 min the reaction mixtures with fluorogenic acceptors were diluted with 10 mM NaOH and analyzed by capillary electrophoresis performed using the separation conditions as described previously (Gilbert et al. (1997) supra.).

B1: Cst-I O:19: α-2,3-sialyltransferase Cst-I from Campylobacter jejuni strain O:19, amino acid sequence of FIG. 3, SEQ ID NO:8 (protein, listed as Campylobacter jejuni)
chain: MTRTRMENELIVSKNMQNIIIAGNGPSLKNINYKRLPREYDVFRCNQFYFEDKYYLGKKIKAVFFNPGVFLQQYHTAKQLILKNEYEIKNIFCSTFNLPFIESNDFLHQFYNFFPDAKLGYEVIENLKEFYAYIKYNEIYFNKRITSGVYMCAIAIALGYKTIYLCGIDFYEGDVIYPFEAMSTNIKTIFPGIKDFKPSNCHSKEYDIEALKLLKSIYKVNIYALCDDSILANHFPLSININNNFTLENKHNNSINDILLTDNTPGVSFYKNQLKADNKIMLNFYNILHSKDTLIKFLNKEIAVLKKQTTQRAKARIQNHLSYKLGQALIINSKSVLGFLSLPFIILSIVISHKQEQKAYKFKVKKNPNLALPPLETYPDYNEALKEKECFTYKLGEEFIKAGKNWYGEGYIKFIFKDVPRLKREFEKGE
modifications: sialyltransferase polypeptide sequence from strain O19
B1: the “transfer of Neu5Ac from CMP-Neu5Ac to an acceptor” value is given as “catalyze the transfer of Neu5Ac from CMP-Neu5Ac to an acceptor” and the sialyltransferase activity was 324.9 mU/ml.

B2: Cst-I O:36: α-2,3-sialyltransferase Cst-I from Campylobacter jejuni strain O:36, amino acid sequence of FIG. 2, SEQ ID NO:6 (protein, listed as Campylobacter jejuni)
chain: MTRTRMENELIVSKNMQNIIIAGNGPSLKNINYKRLPREYDVFRCNQFYFEDKYYLGKKIKAVFFNPGVFLQQYHTAKQLILKNEYEIKNIFCSTFNLSFIESNDFLHQFYNFFPDAKLGYEVIENLKEFYAYIKYNEIYFNKRITSGVYMCAIAIALGYKTIYLCGIDFYEGDVIYPFEAMSTNIKTIFPGIKDFKPSNCHSKEYDIEALKLLKSIYKVNIYALCDDSILANHFPLSININNNFTLENKHNNSINDILLTDNTPGVSFYKNQLKADNKIMLDFYNILHSKDNLIKFLNKEIAVLKKQTTQRAKTRIQNHLSYKLGQALIINSKSVLGYLSLPFIILSIVISHKQEQKAYKFKVKKNPNLALPPLETYPDYKEALKEKECFTYKLGEEFIKASKNWYGGGYIKFYFKDVSRLKREIKEK
modifications: sialyltransferase polypeptide sequence from strain O36
On to B2, for which the “transfer of Neu5Ac from CMP-Neu5Ac to an acceptor” value is “catalyze the transfer of Neu5Ac from CMP-Neu5Ac to an acceptor” and the sialyltransferase activity was determined as 50.3 mU/ml.
